Test results as given in patent US8106168B2, “Metalloproteinase binding proteins” (Dyax Corp., priority 2005, dated 2012).

Columns and labels:
MMP-2 = target: T1, MMP-2 (Homo sapiens, UniProt P08253); test: Cross-reactivity of anti-MMP-14 IgGs, enzymatic activity: MMP-2; type: biochemical; details: 1 μM anti-MMP-14 IgG
T1 sequence (P08253 110-660): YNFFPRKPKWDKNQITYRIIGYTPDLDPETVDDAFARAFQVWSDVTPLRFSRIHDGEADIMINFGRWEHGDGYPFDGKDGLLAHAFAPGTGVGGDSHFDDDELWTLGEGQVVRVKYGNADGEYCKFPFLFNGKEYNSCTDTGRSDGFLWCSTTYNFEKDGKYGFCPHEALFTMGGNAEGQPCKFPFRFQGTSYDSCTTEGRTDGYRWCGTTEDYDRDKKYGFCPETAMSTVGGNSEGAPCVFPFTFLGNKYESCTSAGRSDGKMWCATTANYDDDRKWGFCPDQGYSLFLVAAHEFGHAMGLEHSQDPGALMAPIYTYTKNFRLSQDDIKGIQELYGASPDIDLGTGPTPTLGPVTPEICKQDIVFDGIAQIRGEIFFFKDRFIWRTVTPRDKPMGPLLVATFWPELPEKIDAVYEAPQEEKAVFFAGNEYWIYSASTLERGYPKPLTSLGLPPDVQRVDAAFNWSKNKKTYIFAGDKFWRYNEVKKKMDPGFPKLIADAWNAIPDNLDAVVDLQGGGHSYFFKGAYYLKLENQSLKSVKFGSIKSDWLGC
Description: (§1) The cross-reactivity of exemplary anti-MMP-14 IgGs and Fabs with other human MMPs and TACE (TNF-alpha converting enzyme) was examined. MMP and TACE enzymatic activity was monitored in the absence and presence of 1 μM anti-MMP-14 IgG antibody. Inhibition (Y) of activity ranged from approximately 50-80% of the reaction rate observed in the absence of antibody. “X” indicates no inhibition was observed. Cross-reactivity was not determined for MMP-17 because protein activity could not be detected.
(§2) For the studies summarized in Table 12, six anti-MMP-14 IgGs were selected for cross-reactivity testings: M0043-G02, M0040-A06, M0037-D01, M037-C09, M0038-F01, M0033-H07.

MMP-9 = MMP-9 (Homo sapiens, UniProt P14780); test: Cross-reactivity of anti-MMP-14 IgGs, enzymatic activity: MMP-9; type: biochemical; details: 1 μM anti-MMP-14 IgG
Description: as §1, §2

MMP-12 = MMP-12 (Homo sapiens, UniProt P39900); test: Cross-reactivity of anti-MMP-14 IgGs, enzymatic activity: MMP-12; type: biochemical; details: 1 μM anti-MMP-14 IgG
Description: as §1, §2

MMP-13 = MMP-13 (Homo sapiens, UniProt P45452); test: Cross-reactivity of anti-MMP-14 IgGs, enzymatic activity: MMP-13; type: biochemical; details: 1 μM anti-MMP-14 IgG
Description: as §1, §2

MMP-24 = MMP-24 (Homo sapiens, UniProt Q9Y5R2); test: Cross-reactivity of anti-MMP-14 IgGs, enzymatic activity: MMP-24; type: biochemical; details: 1 μM anti-MMP-14 IgG
Description: as §1, §2

[1] = system: Human umbilical vascular endothelium cells (HUVECs); test: HUVEC tube formation on […]; type: cell-based; details: 1 nM to 250 nM; 18 hours
Description: Human umbilical vascular endothelium cells (HUVECs) were seeded into […]™ basement membrane extract-coated 96 well plates at 20,000 or 40,000 cells in 100 μl/well. The seeded cells were incubated for 30 minutes, then the various test articles were added (vehicle control, M0038-F01 at concentrations ranging from 1 nM to 250 nM, or suramin 8 mg/ml). The cells were incubated at 37° for 18 hours. 100 μl of calcein solution (8 μg/ml) was added 20 minutes prior to image capture. Tube lengths were also quantified.

MDA-MB-435 GFP tumors = test: MDA-MB-435 GFP orthotopic breast tumor growth; type: in vivo, mouse; details: for Tumor Mass (±SD): excised primary tumor
From the text: Fragments of MDA-MB-435 GFP (MDA-MB-435 cells expressing green fluorescent protein) tumors were transplanted by surgical orthotopic implantation (SOI) into the right second mammary gland. Treatment was started on day 15 after SOI when the volume of primary tumors reached about 85 mm^3.
Mice were sacrificed at day 61 after the start of the treatment and tumors (primary and metastases) were identified by fluorescent imaging. Additionally, primary tumors were excised and weighed. […] However, M0038-F01 was not effective in reducing lymph node or lung metastases in this experiment.

B16F1 melanoma tumors = test: B16F1 melanoma subcutaneous tumor growth; type: in vivo, mouse; details: M0038-F01 10, 1 or 0.1 mg/kg Q2d IP; doxorubicin 5 mg/kg weekly IP
From the text: B16F1 melanoma cells were implanted into Female C57/BL6 (CR) mice (4-6 Weeks old) mice by subcutaneous injection.

[2] = system: B16F1 melanoma lung metastases; test: B16F1 melanoma metastasis model, tail vein injection; type: in vivo, mouse; details: 10 mg/kg Q2d IP, 14 days; lungs taken day 15
Description: MMP-14 binding antibodies were also tested in a model of melanoma metastasis. B16F1 cells were grown in culture, harvested at 85% confluence and inoculated at 5×10^5 cells/mouse in 100 μl saline by tail vein injection. Treatment started on Day 1, post inoculation, for 14 days. […] On day 15, animals were sacrificed and lungs taken, fixed, and analyzed for the number of metastases (nodules).

[3] = system: BT747 breast cancer tumor fragments; test: BT747 breast tumor growth; type: in vivo, mouse; details: small initial tumor size groups; M0038-F01 10, 1 or 0.1 mg/kg Q2d IP; trastuzumab 20 mg/kg
Description: Fragments (approximately 1 mm^3) of BT747 breast cancer tumor fragments were implanted into the flanks of female HRLN CB.17 SCID mice. […] All groups were dosed by intraperitoneal (IP) injection. Tumor volume was measured biweekly.

[4] = system: Streptococcus cell wall (SCW)-induced arthritis, knee joints; test: SCW-induced arthritis, joint swelling; type: in vivo, mouse; details: 2, 6 or 10 mg/kg IP at day 13, 16, 20 and 23; technecium uptake
Description: Antigen-induced arthritis, a model of rheumatoid arthritis, was induced by intraarticular injection of Streptococcus cell wall (SCW, […]) into the knee joints of C57B16 mice at day 0, 7, 14 and 21.
Mice were assorted into groups of six animals each and treated (by IP injection) with M0038-F01 (2, 6, or 10 mg/kg), a control isotype-matched antibody (control, 20 mg/ml), or etanercept (ENBREL®, 5 mg/ml) at day 13, 16, 20, and 23. Joint swelling (measured by technecium uptake) was measured at day 15, 16, 22, 23 and 28.

MDA-MB-231-GFP tumors = test: MDA-MB-231-GFP orthotopic breast tumor growth and metastasis
Description: Human breast cancer cells MDA-MB-231 cells transfected with green fluorescent protein (MDA-MB-231-GFP) were inoculated into the mammary fat pad of female BALB/c nu/nu mice with Matrigel. Animals were monitored for tumor growth, and at week 4-5 post tumor cell inoculation, animals with tumors of 30-50 mm^3 were selected, randomized and divided into experimental groups. […] Tumor volume was measured weekly, starting at week 5. Additionally, tissue samples of lung, liver, and spleen were taken to assess metastasis.
Animals were inoculated with MDA-MB-231-GFP cells as described above, then selected and randomized, and divided into experimental groups of 8 animals each. […] Tumor volume was measured weekly, starting at week 5.
Tumor tissue samples were collected on day 35 post-treatment for immunohistochemical analysis. Paraffin-embedded tissue samples were sectioned, stained with CD31 (Santa Cruz Biotechnology Inc., Santa Cruz, Calif., USA), Ki-67 (DAKO, Carpinteria, Calif., USA), MAPK, FAK, phosphoMAPK or phosphoFAK antibodies, visualized with biotinylated secondary antibodies using a VECTASTAIN® ABC (Vector Laboratories Inc., Burlingame, Calif., USA), and lightly counterstained with haemotoxylin.

[5] = immunostaining of tumor tissue, day 35

Chain of MMP-9 (P14780 94-707): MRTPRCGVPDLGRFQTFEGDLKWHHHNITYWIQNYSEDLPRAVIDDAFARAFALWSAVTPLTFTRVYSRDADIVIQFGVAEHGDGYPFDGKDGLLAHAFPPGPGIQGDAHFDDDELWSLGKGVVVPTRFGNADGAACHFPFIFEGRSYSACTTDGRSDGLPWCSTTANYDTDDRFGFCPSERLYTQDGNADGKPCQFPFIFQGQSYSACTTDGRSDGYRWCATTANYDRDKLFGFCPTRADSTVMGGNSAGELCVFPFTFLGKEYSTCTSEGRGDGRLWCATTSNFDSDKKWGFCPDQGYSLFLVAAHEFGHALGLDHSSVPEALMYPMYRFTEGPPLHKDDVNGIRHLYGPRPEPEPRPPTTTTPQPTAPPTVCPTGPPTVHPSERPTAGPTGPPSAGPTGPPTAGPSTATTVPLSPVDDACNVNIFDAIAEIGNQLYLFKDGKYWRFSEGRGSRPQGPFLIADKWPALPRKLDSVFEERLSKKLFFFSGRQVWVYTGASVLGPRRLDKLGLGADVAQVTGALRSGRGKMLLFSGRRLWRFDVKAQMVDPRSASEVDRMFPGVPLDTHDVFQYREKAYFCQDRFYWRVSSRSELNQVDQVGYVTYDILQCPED
Chain of MMP-24 (Q9Y5R2 156-645): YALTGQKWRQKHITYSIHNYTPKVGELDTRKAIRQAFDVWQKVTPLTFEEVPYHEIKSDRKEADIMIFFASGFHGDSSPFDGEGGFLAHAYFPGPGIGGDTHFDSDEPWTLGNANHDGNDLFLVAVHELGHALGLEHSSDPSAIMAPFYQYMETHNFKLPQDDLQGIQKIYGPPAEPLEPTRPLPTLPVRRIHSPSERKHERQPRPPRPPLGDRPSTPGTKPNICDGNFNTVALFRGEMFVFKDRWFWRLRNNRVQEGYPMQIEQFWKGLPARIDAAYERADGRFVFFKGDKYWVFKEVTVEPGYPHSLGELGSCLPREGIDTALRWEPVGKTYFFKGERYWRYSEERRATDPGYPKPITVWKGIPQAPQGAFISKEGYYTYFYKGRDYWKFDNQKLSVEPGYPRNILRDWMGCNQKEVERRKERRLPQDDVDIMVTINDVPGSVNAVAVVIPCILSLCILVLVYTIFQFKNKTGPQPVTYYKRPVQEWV
Chain of MMP-12 (P39900 106-470): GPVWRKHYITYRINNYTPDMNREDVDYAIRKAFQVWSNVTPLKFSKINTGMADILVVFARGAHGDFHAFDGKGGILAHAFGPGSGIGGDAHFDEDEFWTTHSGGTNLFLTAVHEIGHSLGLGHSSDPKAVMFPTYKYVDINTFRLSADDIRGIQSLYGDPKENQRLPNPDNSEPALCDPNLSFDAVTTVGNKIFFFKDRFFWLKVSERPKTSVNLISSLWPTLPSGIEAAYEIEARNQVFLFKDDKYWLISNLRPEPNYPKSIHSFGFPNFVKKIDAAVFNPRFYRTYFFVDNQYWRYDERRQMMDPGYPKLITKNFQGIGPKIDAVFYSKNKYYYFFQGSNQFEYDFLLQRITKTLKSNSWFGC

B1: M0040-A06: human antibody (Fab, IgG) that binds and inhibits MMP-14; HC SEQ ID NO: 162, LC SEQ ID NO: 163 (antibody, V domains shown)
VH: EVQLLESGGGLVQPGGSLRLSCAASGFTFSYYGMYWVRQAPGKGLEWVSSISSSGGYTDYADSVKGRFTISRDNSKNTLYLQMNSLRAEDTAVYYCARRIKYYDIEGEGAFDIWGQGTMVTVSS
VL: QDIVMTQTPPSLPVNPGEPASISCRSSQSLLHRNGYNYLDWYLQKPGQSPQLLIHLGSYRASGVPDRFSGSGSGTDFTLKISRVEAEDVGVYYCMQPLQTPFTFGPGTKVDIK
modifications: Synthetically generated peptide
Cross reactivity: inhibition of MMP-2 activity (MMP-2): Y (Inhibition (Y) of activity ranged from approximately 50-80% of the reaction rate observed in the absence of antibody)
Cross reactivity: inhibition of MMP-9 activity (MMP-9): Y (Inhibition (Y) of activity ranged from approximately 50-80% of the reaction rate observed in the absence of antibody)
Cross reactivity: inhibition of MMP-12 activity (MMP-12): Y (Inhibition (Y) of activity ranged from approximately 50-80% of the reaction rate observed in the absence of antibody)
Cross reactivity: inhibition of MMP-13 activity (MMP-13): Y (Inhibition (Y) of activity ranged from approximately 50-80% of the reaction rate observed in the absence of antibody)
Cross reactivity: inhibition of MMP-24 activity (MMP-24): Y (Inhibition (Y) of activity ranged from approximately 50-80% of the reaction rate observed in the absence of antibody)

B2: M0043-G02: human antibody (Fab, IgG) that binds and inhibits MMP-14; HC SEQ ID NO: 166, LC SEQ ID NO: 167 (antibody, V domains shown)
VH: EVQLLESGGGLVQPGGSLRLSCAASGFTFSWYPMFWVRQAPGKGLEWVSGIYSSGGPTDYADSVKGRFTISRDNSKNTLYLQMNSLRAEDTAVYYCAKDTLGRYYDFWSGYSYGMDVWGQGTTVTVSS
VL: QDIQMTQSPGTLSLSPGERATLSCRASQSVSSSYLAWYQQKPGQAPRLLIYGASSRATGIPDRFSGSGSGTDFTLTISRLEPEDFAVYYCQSGVTFGGGTKVEIK
modifications: Synthetically generated peptide
Cross reactivity: inhibition of MMP-2 activity (MMP-2): Y (Inhibition (Y) of activity ranged from approximately 50-80% of the reaction rate observed in the absence of antibody)
Cross reactivity: inhibition of MMP-9 activity (MMP-9): Y (Inhibition (Y) of activity ranged from approximately 50-80% of the reaction rate observed in the absence of antibody)
Cross reactivity: inhibition of MMP-12 activity (MMP-12): Y (Inhibition (Y) of activity ranged from approximately 50-80% of the reaction rate observed in the absence of antibody)
Cross reactivity: inhibition of MMP-13 activity (MMP-13): Y (Inhibition (Y) of activity ranged from approximately 50-80% of the reaction rate observed in the absence of antibody)
Cross reactivity: inhibition of MMP-24 activity (MMP-24): Y (Inhibition (Y) of activity ranged from approximately 50-80% of the reaction rate observed in the absence of antibody)

B3: M0038-F01: human antibody (Fab, IgG) that binds and inhibits MMP-14; HC SEQ ID NO: 156, LC SEQ ID NO: 157 (antibody, V domains shown)
VH: EVQLLESGGGLVQPGGSLRLSCAASGFTFSLYSMNWVRQAPGKGLEWVSSIYSSGGSTLYADSVKGRFTISRDNSKNTLYLQMNSLRAEDTAVYYCARGRAFDIWGQGTMVTVSS
VL: QDIQMTQSPSSLSAFVGDKVTITCRASQSVGTYLNWYQQKAGKAPELLIYATSNLRSGVPSRFSGSGSGTDFTLTINTLQPEDFATYYCQQSYSIPRFTFGPGTKVDIK
modifications: Synthetically generated peptide
tube formation [1]: dose-dependently inhibits tube formation
Tumor Mass (±SD) (MDA-MB-435 GFP tumors; 0.1 mg/kg Q2d IP, day 61): 1.54 ± 0.91
Tumor Mass (±SD) (MDA-MB-435 GFP tumors; 1 mg/kg Q2d IP, day 61, * p≦0.05 compared to Control): 0.86 ± 0.21*
Tumor Mass (±SD) (MDA-MB-435 GFP tumors; 10 mg/kg (F01 and A2 Q2d IP; taxotere QW×3 i.v.), day 61, * p≦0.05 compared to Control): 0.82 ± 0.35*
tumor volume (MDA-MB-435 GFP tumors; M0038-F01 1 or 10 mg/kg Q2d IP, taxotere 10 mg/kg QW×3 i.v.): reduction of tumor volume
lymph node or lung metastases (MDA-MB-435 GFP tumors; fluorescent imaging, day 61): not effective
tumor growth (B16F1 melanoma tumors): effective in reducing tumor growth
number of lung melanoma tumors (nodules) [2]: substantially reduced the number of lung melanoma tumors
tumor growth [3]: inhibition of tumor growth
joint swelling [4]: did not have an effect
metastases to spleen (MDA-MB-231-GFP tumors; M0038-F01 10 mg/kg Q2d IP, DOX 5 mg/kg weekly IP): reduced in DOX and M0038-F01 treated animals, but the difference was not statistically significant
lung and liver metastases (MDA-MB-231-GFP tumors; M0038-F01 10 mg/kg Q2d IP, DOX 5 mg/kg weekly IP, compared to controls): statistically significant reduction
tumor growth (tumor volume), dose-ranging experiment (MDA-MB-231-GFP tumors; M0038-F01 0.1, 1 or 10 mg/kg Q2d IP for 5 weeks, A2 10 mg/kg): reduced in all M0038-F01 treated animals, with the 10 mg/kg dose being most effective, followed by the 1 mg/kg and 0.1 mg/kg doses
tumor growth (tumor volume) (MDA-MB-231-GFP tumors; M0038-F01 or A2 10 mg/kg Q2d IP, DOX 5 mg/kg weekly IP, five weeks): substantially inhibited
CD31 and KI67 levels compared to vehicle and A2 controls (MDA-MB-231-GFP tumors; [5]): statistically significant (p<0.05) reductions
phospho-FAK level (MDA-MB-231-GFP tumors; [5]): 4±1.2 A.U.
phospho-MAP kinase level (MDA-MB-231-GFP tumors; [5]): 2.4±0.7 A.U.
total MAP kinase and FAK levels (MDA-MB-231-GFP tumors; immunostaining of tumor tissue, day 35, versus control tumors): essentially the same as in control tumors
Ki67 (MDA-MB-231-GFP tumors; immunostaining of tumor tissue, day 35 post-treatment, image analysis): 2.4 ± 1.2
